Test results taken from patent US20260250352A1.
Read-outs that look alike come from different tables or passages of the source. Values belong to the binder of their own block, whether it stands above or below them.

Tests used:
Test in all cases: cell-based or functional assay
[1] = target: recombinant human APRIL (human) (UniProt O75888)
[2] = target: APRIL + BAFF in combination (human)
[3] = target: APRIL + BAFF in combination (human); remark: listed apart in the source
[4] = target: single chain BAFF-APRIL-APRIL heterotrimer (BAA) (human) (UniProt Q9Y275)
single chain BAFF-APRIL-APRIL heterotrimer (BAA) (human), sequence (Q9Y275 other isoform, or with tags, fused parts or gaps limits assumed): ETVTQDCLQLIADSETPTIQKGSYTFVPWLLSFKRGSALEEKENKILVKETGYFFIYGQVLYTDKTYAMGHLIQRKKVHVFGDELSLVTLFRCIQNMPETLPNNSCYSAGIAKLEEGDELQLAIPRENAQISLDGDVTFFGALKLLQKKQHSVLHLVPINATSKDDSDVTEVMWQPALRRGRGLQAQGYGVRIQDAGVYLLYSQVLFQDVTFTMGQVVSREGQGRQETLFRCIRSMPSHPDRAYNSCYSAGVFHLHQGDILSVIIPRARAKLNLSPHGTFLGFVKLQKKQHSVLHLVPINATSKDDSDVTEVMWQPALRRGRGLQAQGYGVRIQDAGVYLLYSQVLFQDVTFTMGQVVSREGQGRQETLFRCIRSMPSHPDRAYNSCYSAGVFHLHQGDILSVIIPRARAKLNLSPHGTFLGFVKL

IC50, Jurkat/NF-kB/TACI reporter [3]: 16.8 nM
IC50, TACI/Jurkat/NF-kB reporter [3]: > 200 nM
B2: Telitacicept, O14836 13-118 (Fc fusion, not shown: a dimerising Fc or GST)
chain: SRVDQEERFPQGLWTGVAMRSCPEEQYWDPLLGTCMSCKTICNHQSQRTCAAFCRSLSCRKEQGKFYDHLLRDCISCASICGQHPKQCAYFCENKLRSPVNLPPEL
modifications: here or on the partner: The drug is a disulfide-linked Fc-fusion homodimer. Only one TACI ECD arm is given, and the Fc is left out.

IC50, Jurkat/NF-kB/TACI reporter [3]: 1.39 nM
IC50, TACI/Jurkat/NF-kB reporter [3]: 3.1 nM
fold better IC50 than anti-APRIL mAb plus belimumab [3]: 3.5 fold
fold lower IC50 than telitacicept [3]: > 50 fold
B3: 26 TACI CRD2-Fc (Fc fusion)
chain: SLSCRKEQGEYYDHLLRDCISCASICGQHPKQCADFCENKLRSGSGGGGSEPKSSDKTHTCPPCPAPEAEGAPSVFLFPPKPKDTLMISRTPEVTCVVVDVSHEDPEVKFNWYVDGVEVHNAKTKPREEQYNSTYRVVSVLTVLHQDWLNGKEYKCKVSNKALPAPIEKTISKAKGQPREPQVYTLPPSRDELTKNQVSLTCLVKGFYPSDIAVEWESNGQPENNYKTTPPVLDSDGSFFLYSKLTVDKSRWQQGNVFSCSVMHEALHNHYTQKSLSLSPG

Further lines, the binder ahead of its results:

B1: Belimumab (antibody, INN chains, looked up, V domains shown)
VH: QVQLQQSGAEVKKPGSSVRVSCKASGGTFNNNAINWVRQAPGQGLEWMGGIIPMFGTAKYSQNFQGRVAITADESTGTASMELSSLRSEDTAVYYCARSRDLLLFPHHALSPWGRGTMVTVSS
VL: SSELTQDPAVSVALGQTVRVTCQGDSLRSYYASWYQQKPGQAPVLVIYGKNNRPSGIPDRFSGSSSGNTASLTITGAQAEDEADYYCSSRDSSGNHWVFGGGTELTVLG
IC50, Jurkat/NF-kB/TACI reporter [1]: 215000 nM
IC50 relative to TACI 30-110-Fc [1]: 55.8
IC50, Jurkat/NF-kB/TACI reporter [2]: > 100 nM

B4: Anti-APRIL mAb based on the published VIS649 (sibeprenlimab) sequence (antibody, INN chains, looked up, V domains shown)
VH: QVQLVQSGAEVKKPGASVKVSCKASGYTFTDYTIHWVRQATGQGLEWMGWIYPLRGSINYAQKFQGRVTMTADKSISTVYMELSSLRSEDTAVYFCARHGAYYSNAFDYWGQGTLVTVSS
VL: EIVMTQSPATLSVSPGERATLSCRASESVDNDGIRFLHWYQQKPGQAPRLLIYRASTRATGIPARFSGSGSRTEFTLTISSLQSEDFAVYYCQQSNKDPYTFGGGTKVEIK
IC50, TACI/Jurkat/NF-kB reporter [1]: 5.1 nM
IC50, TACI/Jurkat/NF-kB reporter [4]: 0.144 nM

B5: Anti-APRIL mAb based on the published BION-1301 sequence (antibody, INN chains, looked up, V domains shown)
VH: B4 VH
VL: B4 VL
IC50, Jurkat/NF-kB/TACI reporter [1]: 4.9 nM
IC50, TACI/Jurkat/NF-kB reporter [1]: 21.9 nM
IC50, Jurkat/NF-kB/TACI reporter [2]: > 100 nM
IC50, TACI/Jurkat/NF-kB reporter [2]: > 200 nM
